Laboratory results reported in article PMC3408419 (Molecular Biology of the Cell, 2012).
Values joined by “and” are separate entries in the source; they are usually repeats but may differ in a detail not shown here. Identical values can stand only once.

B1: Sec13/31 complex (complex)
chain 1: MVVIANAHNELIHDAVLDYYGKRLATCSSDKTIKIFEVEGETHKLIDTLTGHEGPVWRVDWAHPKFGTILASCSYDGKVLIWKEENGRWSQIAVHAVHSASVNSVQWAPHEYGPLLLVASSDGKVSVVEFKENGTTSPIIIDAHAIGVNSASWAPATIEEDGEHNGTKESRKFVTGGADNLVKIWKYNSDAQTYVLESTLEGHSDWVRDVAWSPTVLLRSYLASVSQDRTCIIWTQDNEQGPWKKTLLKEEKFPDVLWRASWSLSGNVLALSGGDNKVTLWKENLEGKWEPAGEVHQ
chain 2: MVKLAEFSRTATFAWSHDKIPLLVSGTVSGTVDANFSTDSSLELWSLLAADSEKPIASLQVDSKFNDLDWSHNNKIIAGALDNGSLELYSTNEANNAINSMARFSNHSSSVKTVKFNAKQDNVLASGGNNGEIFIWDMNKCTESPSNYTPLTPGQSMSSVDEVISLAWNQSLAHVFASAGSSNFASIWDLKAKKEVIHLSYTSPNSGIKQQLSVVEWHPKNSTRVATATGSDNDPSILIWDLRNANTPLQTLNQGHQKGILSLDWCHQDEHLLLSSGRDNTVLLWNPESAEQLSQFPARGNWCFKTKFAPEAPDLFACASFDNKIEVQTLQNLTNTLDEQETETKQQESETDFWNNVSREESKEKPTVFHLQAPTWYGEPSPAAHWAFGGKLVQITPDGKGVSITNPKISGLESNTTLSEALKTKDFKPLINQRLVKVIDDVNEEDWNLLEKLSMDGTEEFLKEALAFDNDESDAQDDANNEKEDDGEEFFQQIETNFQPEGDFSLSGNIEQTISKNLVSGNIKSAVKNSLENDLLMEAMVIALDSNNERLKESVKNAYFAKYGSKSSLSRILYSISKREVDDLVENLDVSQWKFISKAIQNLYPNDIAQRNEMLIKLGDRLKENGHRQDSLTLYLAAGSLDKVASIWLSEFPDLEDKLKKDNKTIYEAHSECLTEFIERFTVFSNFINGSSTINNEQLIAKFLEFINLTTSTGNFELATEFLNSLPSDNEEVKTEKARVLIASGKSLPAQNPATATTSKAKYTNAKTNKNVPVLPTPGMPSTTSIPSMQAPFYGMTPGASANALPPKPYVPATTTSAPVHTEGKYAPPSQPSMASPFVNKTNSSTRLNSFAPPPNPYATATVPATNVSTTSIPQNTFAPIQPGMPIMGDYNAQSSSIPSQPPINAVSGQTPHLNRKANDGWNDLPLKVKEKPSRAKAVSVAPPNILSTPTPLNGIPANAASTMPPPPLSRAPSSVSMVSPPPLHKNSRVPSLVATSESPRASISNPYAPPQSSQQFPIGTISTANQTSNTAQVASSNPYAPPPQQRVATPLSGGVPPAPLPKASNPYAPTATTQPNGSSYPPTGPYTNNHTMTSPPPVFNKPPTGPPPISMKKRSNKLASIEQNPSQGATYPPTLSSSASPLQPSQPPTLASQVNTSAENVSHEIPADQQPIVDFLKEELARVTPLTPKEYSKQLKDCDKRLKILFYHLEKQDLLTQPTIDCLHDLVALMKEKKYKEAMVIHANIATNHAQEGGNWLTGVKRLIGIAEATLN

Experiments:
[1] = target: MBP-Sec16-mOrange (S. cerevisiae) (UniProt P48415); assay: single-molecule photobleaching
Sec23/24 complex = Sec23/24 complex (S. cerevisiae, UniProt P15303;P40482); assay: liposome flotation
Sequence of Sec23/24 complex (P15303 whole entry, chain 1 of 2): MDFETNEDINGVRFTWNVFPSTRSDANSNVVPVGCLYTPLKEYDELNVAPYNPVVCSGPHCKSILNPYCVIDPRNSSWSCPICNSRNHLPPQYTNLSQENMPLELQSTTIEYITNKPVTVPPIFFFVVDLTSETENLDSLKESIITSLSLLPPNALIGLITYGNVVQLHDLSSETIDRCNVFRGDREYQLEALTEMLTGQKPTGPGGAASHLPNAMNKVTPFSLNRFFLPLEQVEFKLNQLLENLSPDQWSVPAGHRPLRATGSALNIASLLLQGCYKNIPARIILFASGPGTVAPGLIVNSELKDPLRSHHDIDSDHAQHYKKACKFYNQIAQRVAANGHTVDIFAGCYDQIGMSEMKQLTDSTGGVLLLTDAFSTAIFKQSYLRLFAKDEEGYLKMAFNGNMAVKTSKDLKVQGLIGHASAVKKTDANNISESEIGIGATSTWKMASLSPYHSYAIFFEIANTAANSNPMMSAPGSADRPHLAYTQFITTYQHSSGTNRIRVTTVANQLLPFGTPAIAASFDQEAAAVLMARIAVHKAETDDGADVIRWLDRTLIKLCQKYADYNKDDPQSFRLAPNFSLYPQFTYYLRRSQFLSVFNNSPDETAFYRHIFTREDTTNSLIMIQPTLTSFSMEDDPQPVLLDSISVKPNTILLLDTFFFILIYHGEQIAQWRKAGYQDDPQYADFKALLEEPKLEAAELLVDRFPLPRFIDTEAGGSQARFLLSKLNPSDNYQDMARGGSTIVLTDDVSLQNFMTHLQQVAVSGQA
Sequence of Sec23/24 complex (P40482 whole entry, chain 2 of 2): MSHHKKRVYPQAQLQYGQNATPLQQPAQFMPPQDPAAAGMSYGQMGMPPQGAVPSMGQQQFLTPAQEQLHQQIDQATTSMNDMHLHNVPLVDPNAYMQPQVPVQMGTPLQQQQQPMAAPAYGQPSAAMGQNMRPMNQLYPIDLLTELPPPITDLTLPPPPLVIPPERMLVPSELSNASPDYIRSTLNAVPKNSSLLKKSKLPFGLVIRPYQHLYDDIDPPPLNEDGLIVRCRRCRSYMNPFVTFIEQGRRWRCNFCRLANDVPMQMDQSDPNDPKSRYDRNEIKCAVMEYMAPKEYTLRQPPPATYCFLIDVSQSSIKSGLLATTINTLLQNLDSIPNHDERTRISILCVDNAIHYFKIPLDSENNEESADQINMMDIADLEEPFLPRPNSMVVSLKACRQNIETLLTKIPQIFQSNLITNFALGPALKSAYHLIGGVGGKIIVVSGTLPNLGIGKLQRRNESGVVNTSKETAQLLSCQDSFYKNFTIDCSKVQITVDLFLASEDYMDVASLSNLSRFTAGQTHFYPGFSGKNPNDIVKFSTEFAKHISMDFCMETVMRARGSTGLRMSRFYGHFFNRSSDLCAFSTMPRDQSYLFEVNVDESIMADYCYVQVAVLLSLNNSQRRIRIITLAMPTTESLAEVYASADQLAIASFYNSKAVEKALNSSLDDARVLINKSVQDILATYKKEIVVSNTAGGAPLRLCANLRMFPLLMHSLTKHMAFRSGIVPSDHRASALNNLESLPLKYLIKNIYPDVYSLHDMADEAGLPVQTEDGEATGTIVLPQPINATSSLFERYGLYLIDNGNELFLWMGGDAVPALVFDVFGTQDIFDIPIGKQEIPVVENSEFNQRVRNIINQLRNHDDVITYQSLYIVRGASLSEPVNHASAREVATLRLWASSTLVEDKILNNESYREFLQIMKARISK

Row | Molecule | stoichiometry N [1] | binding result (Sec23/24 complex)
1 | MBP-Sec16-mOrange, P48415 1-2195 | 4 and 6 | 
2 | B1 |  | binds
